# Results from IntAct's records for PubMed 17159996.
# B1: Tyrosine-protein phosphatase non-receptor type 1 (Homo sapiens), P18031 (parent)
# chain: MEMEKEFEQIDKSGSWAAIYQDIRHEASDFPCRVAKLPKNKNRNRYRDVSPFDHSRIKLHQEDNDYINASLIKMEEAQRSYILTQGPLPNTCGHFWEMVWEQKSRGVVMLNRVMEKGSLKCAQYWPQKEEKEMIFEDTNLKLTLISEDIKSYYTVRQLELENLTTQETREILHFHYTTWPDFGVPESPASFLNFLFKVRESGSLSPEHGPVVVHCSAGIGRSGTFCLADTCLLLMDKRKDPSSVDIKKVLLEMRKFRMGLIQTADQLRFSYLAVIEGAKFIMGDSSVQDQWKELSHEDLEPPPEHIPPPPRPPKRILEPHNGKCREFFPNHQWVKEETQEDKDCPIKEEKGSPLNAAPYGIESMSQDTEVRSRVVGGSLRGAQAASPAKGEPSLPEKDEDHALSYWKPFLVNMCVATVLTAGAYLCYRFLFNSNT
# Variants of: B1
# Conditions: with insr_human INSR
row,Variant,effect of a mutation on the interaction
1,K73R;K335R;K347R;K389R,decreasing interaction
